This note sets out measurements from patent publication US20240067740A1 (NOVAROCK BIOTHERAPEUTICS, published 2024).

Sequences and labels used below:
T1: cynomolgus TNFR2 (Macaca fascicularis, UniProt P20333 23-461 (human entry))
T1 construct: Stably overexpressed on HEK293T cells; also called cynoTNFR2
T1 chain: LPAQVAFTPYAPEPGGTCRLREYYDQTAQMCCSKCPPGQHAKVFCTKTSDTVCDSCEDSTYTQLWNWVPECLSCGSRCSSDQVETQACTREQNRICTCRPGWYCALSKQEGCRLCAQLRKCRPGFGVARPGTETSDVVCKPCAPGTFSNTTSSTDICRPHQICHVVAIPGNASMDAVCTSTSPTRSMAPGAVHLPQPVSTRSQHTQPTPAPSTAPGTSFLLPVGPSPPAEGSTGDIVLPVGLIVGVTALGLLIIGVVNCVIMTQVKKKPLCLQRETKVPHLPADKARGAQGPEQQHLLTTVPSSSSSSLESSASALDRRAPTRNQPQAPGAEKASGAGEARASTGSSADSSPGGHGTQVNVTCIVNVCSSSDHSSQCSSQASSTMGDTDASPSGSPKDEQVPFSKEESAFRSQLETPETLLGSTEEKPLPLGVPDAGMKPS

T2: human TNFR2 (Homo sapiens, UniProt P20333 23-461)
T2 construct: also called hTNFR2; TNFRSF1B
T2 sequence: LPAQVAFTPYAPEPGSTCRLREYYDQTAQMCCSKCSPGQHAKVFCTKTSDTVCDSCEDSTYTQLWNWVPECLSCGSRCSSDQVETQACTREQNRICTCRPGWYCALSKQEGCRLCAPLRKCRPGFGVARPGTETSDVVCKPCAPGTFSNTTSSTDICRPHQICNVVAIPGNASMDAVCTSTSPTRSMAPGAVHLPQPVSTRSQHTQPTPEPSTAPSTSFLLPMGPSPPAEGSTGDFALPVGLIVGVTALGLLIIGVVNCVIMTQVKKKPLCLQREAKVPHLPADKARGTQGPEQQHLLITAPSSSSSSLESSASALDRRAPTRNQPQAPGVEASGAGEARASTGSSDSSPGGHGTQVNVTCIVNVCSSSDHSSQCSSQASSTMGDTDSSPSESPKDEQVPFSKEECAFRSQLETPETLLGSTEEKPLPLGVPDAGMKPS

T3: murine TNFR2 (Mus musculus, UniProt P25119 23-474)
T3 construct: Stably overexpressed on HEK293T cells; also called mouse TNFR2
T3 sequence: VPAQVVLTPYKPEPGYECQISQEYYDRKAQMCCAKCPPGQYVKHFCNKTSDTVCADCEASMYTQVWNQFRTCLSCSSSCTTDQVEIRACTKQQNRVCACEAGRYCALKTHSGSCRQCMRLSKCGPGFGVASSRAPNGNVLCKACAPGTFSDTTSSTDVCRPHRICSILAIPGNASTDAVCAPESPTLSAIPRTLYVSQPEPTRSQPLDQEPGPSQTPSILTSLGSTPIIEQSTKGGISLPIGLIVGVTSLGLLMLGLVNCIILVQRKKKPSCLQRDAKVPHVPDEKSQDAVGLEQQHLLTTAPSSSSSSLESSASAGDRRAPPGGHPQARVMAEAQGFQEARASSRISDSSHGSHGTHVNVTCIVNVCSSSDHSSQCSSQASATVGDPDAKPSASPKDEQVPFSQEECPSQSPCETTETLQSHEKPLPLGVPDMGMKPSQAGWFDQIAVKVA

T4: human TNFR1 (Homo sapiens, UniProt P19438 30-455)
T4 construct: Stably overexpressed on CHO-K1 cells; also called TNFRSF1A; p55
T4 sequence: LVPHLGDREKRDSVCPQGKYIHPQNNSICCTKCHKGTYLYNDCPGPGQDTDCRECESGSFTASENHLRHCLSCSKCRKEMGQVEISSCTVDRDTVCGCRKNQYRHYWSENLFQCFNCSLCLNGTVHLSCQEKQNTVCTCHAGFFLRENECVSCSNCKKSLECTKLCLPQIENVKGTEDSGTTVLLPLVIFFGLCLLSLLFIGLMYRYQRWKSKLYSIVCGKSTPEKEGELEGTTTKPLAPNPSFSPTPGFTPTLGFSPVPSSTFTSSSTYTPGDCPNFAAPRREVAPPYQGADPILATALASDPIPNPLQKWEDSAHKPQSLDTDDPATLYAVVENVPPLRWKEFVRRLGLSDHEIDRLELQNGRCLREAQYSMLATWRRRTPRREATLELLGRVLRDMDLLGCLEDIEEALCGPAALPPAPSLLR

B1: R2_mAb-1 (antibody, V domains shown)
VH: QVQLVESGGGVVQPGRSLRLSCAASGFTFSSYGMHWVRQAPGKGLEWVAVIWFDEDNKDYADSVKGRFTISRDNSKNTLYLQMSSLRAEDTAVYYCARDNDILTGYYYYYGMDVWGQGTTVTVSS
VL: DIQLTQSPSFLSASVGDRVTITCRASQDISSYLAWYQQKPGKAPKLLIYAASTLQSGVPSRFSGSGSGTEFTLTISSLQPEDFATYYCQQLNSYPPTFGQGTKVEIK
notes: also called R2-1
B2: R2_mAb-2 (antibody, V domains shown)
VH: QVQLVQSGPEVKKPGASVKVSCKASGYTFTNYGISWVRQAPGQGLEWMGWINAYNGNTNYAQKLQGRVTMTTDTSTSTAYMELRSLRSDDTAVYYCARDGGYGSGTYHNDYYYYYGMDVWGQGTTVTVSS
VL: EIVLTQSPDFQSMTPEEKVTITCRASQSIGSNLHWYQQKPDQSPKLLIKFASQSISGVPSRFSGSGSGTDFTLTINSLEAEDAATYYCHQSSSLPFTFGPGTKVDIK
notes: also called R2-2
B3: R2_mAb-5 (antibody, V domains shown)
VH: QVQLVQSGAEVKKPGASVTVSCKASGYTFSTYGIIWVRQAPGQGLEWMGWISAFNGNANSAQKLQDRVTMTTDTSTSTAYMELRSLRSDDTAVYYCARGEDFFDYWGQGTLVTVSS
VL: DIVMTQTPLSSPVTLGQPASISCRSSQSLVHSDGNTYLSWLQQRPGQPPRLLIYKVSSRFSGVPDRFSGSGAGTDFTLKISRVEAEDVGVYYCTQSTQFPFTFGRGTKLEIK
notes: also called R2-5
B4: R2_mAb-6 (antibody, V domains shown)
VH: QVQLVQSGAEVKKPGASVKVSCKASGYTFLSYGLSWVRQAPGQGLEWMGWINAYNGNTNYAQNLQDRVTMTTDTSTSTAYMELRSLRSDDMAVYYCARWDILTAYYSSDAFDIWGQGTMVTVSS
VL: B3 VL with S39N, S58N, S96T, F101I, R105Q, K108R
notes: also called R2-6
B5: R2_mAb-4 (antibody, V domains shown)
VH: QVQLVQSGAEVRKPGASVKVSCKASGYTFTSYSVTWVRQAPGQGLEWMGWINAFSGNTHYAQNLQDRVTMTTDTSTSTAYMELRSLRSDDTAVYYCAREEGSGSYEDYYGMDVWGQGTTVTVSS
VL: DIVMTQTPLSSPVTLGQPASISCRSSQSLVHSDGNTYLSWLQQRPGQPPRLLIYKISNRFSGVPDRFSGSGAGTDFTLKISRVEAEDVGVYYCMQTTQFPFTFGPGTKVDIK
notes: also called R2-4
B6: R2_mAb-3 (antibody, V domains shown)
VH: QVQLQESGPGLVKPSETLSLTCTVSGGSISSYYWSWIRQAPGKGLEWIGYIYYSGSTNYNPSLKSRVTISVDTSKNQFSLKLSSVTAADTAVYYCARDDGSSDYGMDVWGQGTTVTVSS
VL: AIQLTQSPSSLSASVGDRVTITCRASQGISSALAWYQQKPGKAPKLLIYDASSLESGVPSRFTGSGTDFTLTISSLQPEDFATYYCQQFNNYMYTFGQGTKLEIK
notes: also called R2-3

Where a chain is given by its changes, count along the chain named.

For the first test, the target named is T1, cynomolgus TNFR2. The test can be described thus: flow cytometry on HEK293T cells stably overexpressing cynomolgus TNFR2.
Protocol: (§1) HEK293T cells stably overexpressing human TNFR2, cynomolgus TNFR2, or murine TNFR2 were aliquoted in FACS buffer and incubated with serial dilutions of TNFR2 antibody for 2 hours.
(§2) The concentration-response was fitted to a four-parameter logistic non-linear regression model in the GraphPad Prism software to obtain the EC₅₀ values.
Consider B1, for which the binding result is given as “binds”.

B2: the binding result was “binds”.

Consider B3, for which the binding result was “binds”.

On to B4, for which the binding result was “binds”.

For B5, the binding result is reported as “binds”.

The target in the next test is T2, human TNFR2. The test can be described thus: flow cytometry on HEK293T cells stably overexpressing human TNFR2, Alexa Fluor 647 secondary antibody.
Protocol: (§3) HEK293T cells stably overexpressing human TNFR2 or CHO-K1 stably overexpressing human TNFR1 were aliquoted in FACS buffer and incubated with serial dilutions of TNFR2 antibody. […] Following an incubation, the reactions were subsequently analyzed by flow cytometry. […] The concentration-response was fitted to a four-parameter logistic non-linear regression model in the GraphPad Prism software to obtain the EC₅₀ values.
B1: the “EC50 (read off the curve)” value was about 0.1 nM.

In the case of B6, the “EC50 (read off the curve)” value was about 0.4 nM.

For B2, the “EC50 (read off the curve)” value was about 0.3 nM.

With B3, the “EC50 (read off the curve)” value was about 0.1 nM.

In the case of B4, the “EC50 (read off the curve)” value was about 0.1 nM.

Take B5: the “EC50 (read off the curve)” value was about 0.1 nM.

The target of a further test is T3, murine TNFR2. The test can be described thus: flow cytometry on HEK293T cells stably overexpressing murine TNFR2.
Protocol: as §1, §2
In the case of B1, the binding result was “no binding (tested: up to 10 (unit cut off in the text))”.

With B6, the binding result is listed as “no binding (tested: up to 10 (unit cut off in the text))”.

For B2, the binding result is recorded as “no binding (tested: up to 10 (unit cut off in the text))”.

Turning to B3, the binding result is “no binding (tested: up to 10 (unit cut off in the text))”.

Regarding B4, the binding result is listed as “no binding (tested: up to 10 (unit cut off in the text))”.

As for B5, the binding result is recorded as “no binding (tested: up to 10 (unit cut off in the text))”.

The target of another test is T4, human TNFR1. The test can be described thus: flow cytometry on CHO-K1 cells stably overexpressing human TNFR1.
Protocol: as §3
Consider B1, for which the binding result is “no binding (tested: up to 10 µg/mL)”.

For B6, the binding result was “no binding (tested: up to 10 µg/mL)”.

On to B2, for which the binding result is “no binding (tested: up to 10 µg/mL)”.

B3: the binding result was “no binding (tested: up to 10 µg/mL)”.

In the case of B4, the binding result was “no binding (tested: up to 10 µg/mL)”.

Turning to B5, the binding result is reported as “no binding (tested: up to 10 µg/mL)”.

The next test has as its target T2, human TNFR2. Briefly: image binding assay on adherent HEK293T cells overexpressing human TNFR2 (384-well plate).
Protocol: as §3
For B3, the “EC50 (read off the curve)” value is about 0.1 nM.

As to B5, the “EC50 (read off the curve)” value is about 0.2 nM.

The next test addresses T2, human TNFR2. Briefly: binding to cells stably overexpressing human TNFR2, serial dilutions, flow cytometry or imaging.
Protocol: as §3
Regarding B1, a half-maximal effect (EC50) was put at 0.1 nM.

B6 showed an EC50 of 0.38 nM. This EC50 is about 3.8-fold higher than that of the molecule before.

On to B2, for which the response was half-maximal at 0.35 nM (EC50).

Molecule B3 gave an EC50 of 0.1 nM.

In turn, B4 came in with an EC50 of 0.14 nM.

B5 registered an EC50 of 0.11 nM.
